Experimental findings from PMC12613123, “Fabrication of Disposable Thin-Film Electrodes via Shadow Mask Technique for Sensitive Point-of-Care Detection of C‑Reactive Protein, a Sepsis Biomarker” are described below.

For the data set, the target named is T1, C-reactive protein (CRP) (UniProt P02741 19-224).
T1 sequence: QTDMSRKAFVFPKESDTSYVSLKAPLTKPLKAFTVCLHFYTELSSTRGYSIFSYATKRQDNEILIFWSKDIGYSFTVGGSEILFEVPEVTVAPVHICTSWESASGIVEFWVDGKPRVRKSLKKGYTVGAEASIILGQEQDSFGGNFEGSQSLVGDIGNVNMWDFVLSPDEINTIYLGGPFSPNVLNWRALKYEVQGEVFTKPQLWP
The experiment in a line: electrochemical aptasensor (CV, EIS); aptamer/MCH on gold thin-film electrode; ferro-/ferricyanide; CRP 0.02-0.9 ng/mL; Rct 1.78 to 2.8 kOhm; LOD 6.5 pg/mL (not a Kd); ferro-/ferricyanide redox couple; buffer, salt, pH and temperature not given in the held text (aptamer immobilization at 2-4 C). The following applies: chain copies: 5.

B1: CRP aptamer (44 nt) (ssDNA)
DNA: GCCTGTAAGGTGGTCGGTGTGGCGAGTGTGTTAGGAGAGATTGC
modifications: 5' HO-(CH2)6-S-S-(CH2)6 thiol linker (TCEP reduced), immobilized on gold with MCH backfill
As for B1, the binding result is reported as “binds”.
